Results published in article PMC9315497, “Structural Analysis of Ino2p/Ino4p Mutual Interactions and Their Binding Interface with Promoter DNA”.
Substitutions are numbered along the chain they refer to.

Experiments:
Ino2pDBD WT;Ino4pDBD WT [1] = target: T1, Ino2pDBD WT;Ino4pDBD WT (Saccharomyces cerevisiae (genomic DNA …, UniProt P26798;P13902 230-304;40-117, |)); experiment: EMSA; 20 mM Tris-HCl pH 8.0, 100 mM NaCl (buffer B); EMSA 1.5 uM DNA, 1.5-150 uM protein, 1 h on ice; ITC at 10 C, 400 uM DNA into 20 uM protein; conditions: protein: recombinant;recombinant, tags: N-terminal His6;none (with His-Ino2p), copies: 1;1
T1 sequence 1: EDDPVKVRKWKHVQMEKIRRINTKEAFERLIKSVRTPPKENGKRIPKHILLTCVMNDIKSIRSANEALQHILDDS
T1 sequence 2: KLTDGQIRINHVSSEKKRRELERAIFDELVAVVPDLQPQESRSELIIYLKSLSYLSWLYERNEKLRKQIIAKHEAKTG

Ino2pDBD WT;Ino4pMut = target: T2, Ino2pDBD WT;Ino4pMut (Saccharomyces cerevisiae (genomic DNA …, UniProt P26798;P13902 230-304;40-117, |H50A;E54A;R57A;R58A)); experiment: ITC; 10 C; 20 mM Tris-HCl pH 8.0, 100 mM NaCl (buffer B); EMSA 1.5 uM DNA, 1.5-150 uM protein, 1 h on ice; ITC at 10 C, 400 uM DNA into 20 uM protein; conditions: protein: recombinant;recombinant; tags: N-terminal His6;none; copies: 1;1; 14 bp with 5' overhang 1 nt at each end
T2 sequence 1: T1 sequence 1
T2 sequence 2: T1 sequence 2 with H11A, E15A, R18A, R19A

Ino2pMut;Ino4pDBD WT = target: T3, Ino2pMut;Ino4pDBD WT (Saccharomyces cerevisiae;Saccharomyces …, UniProt P26798;P13902 230-304;40-117, H241A;E245A;R249A;R273A|); experiment: as above; conditions: protein: recombinant;recombinant; tags: N-terminal His6;none (with His-Ino2p); copies: 1;1; 14 bp with 5' overhang 1 nt at each end
T3 sequence 1: T1 sequence 1 with H12A, E16A, R20A, R44A
T3 sequence 2: T1 sequence 2

Ino2pDBD WT;Ino4pDBD WT [2] = target: T1, Ino2pDBD WT;Ino4pDBD WT; experiment: as above; conditions: protein: recombinant;recombinant; tags: N-terminal His6;none (with His-Ino2p); copies: 1;1; 14 bp with 5' overhang 1 nt at each end

B1: 19bp-FAM promoter DNA (dsDNA)
DNA 1: GAATTTTCACATGCAGATC
DNA 2: GATCTGCATGTGAAAATTC
binding result (Ino2pDBD WT;Ino4pDBD WT [1]; label: 5'-FAM on sense strand, blunt): binds

B2: Flanking mutant promoter DNA (dsDNA)
DNA 1: GAGGGTCACATGCAG
DNA 2: CTGCATGTGACCCTC
binding result (Ino2pDBD WT;Ino4pDBD WT [1]): binds

B3: 15bp-GC promoter DNA (dsDNA)
DNA 1: GATTTTCACATGCAG
DNA 2: CCTGCATGTGAAAAT
binding result (Ino2pDBD WT;Ino4pMut): no binding | binding result (Ino2pMut;Ino4pDBD WT): no binding | Kd (Ino2pDBD WT;Ino4pDBD WT [2]): 749 nM
